Test results taken from patent US20230295310A1 (ABCELLERA BIOLOGICS, published 2023).

Biological target: human EGFR, C-terminal eGFP-tagged, on CHO-K1 cells (human, UniProt P00533 25-1210)
Assay: cell-based or functional assay

Binder | EC50 CHO-K1 EGFR Low (nM); T cell activation bioassay, luciferase [nM] | EC50 CHO-K1 EGFR Med (nM); T cell activation bioassay, luciferase [nM]
GOMP001_bsAb_017 (bispecific antibody, human IgG1, kappa, L234A L235A) heavy 1: QVQLVQSGAEVKKPGASVKVSCKASGYTFTSHWMHWVRKAPGQGLEWIGEFNPSNGRTNYNEEFKSKATMTVDTSTNTAYMELSSLRSEDTAVYYCASRDYDYDGRYFDYWGQGTLVTVSSASTKGPSVFPLAPSSKSTSGGTAALGCLVADYFPEPVTVSWNSGALTSGVHTFPAVLQSSGLYSLSSVVTVPSSSLGTQTYICNVNHKPSNTKVDEKVEPKSCDKTHTCPPCPAPEAAGGPSVFLFPPKPKDTLMISRTPEVTCVVVDVSHEDPEVKFNWYVDGVEVHNAKTKPREEQYNSTYRVVSVLTVLHQDWLNGKEYKCKVSNKALPAPIEKTISKAKGQPREPQVYTLPPSREEMTDNQVSLTCLVKGFYPSDIAVEWESNGQPENNYKTTPPVLMSDGSFFLASKLTVDKSRWQQGNVFSCSVMHEALHNHYTQKSLSLSPG light 1: RIQMTQSPSSLSASVGDRVTITCSASSSVTYMYWYQDKPGKAPKLLIYDTSNLASGVPSRFSGSGSGTDYTFTISSLQPEDIATYYCQQWSSHIFTFGQGTKVEIKRTVAAPSVFIFPPSDKQLKSGTARVVCLLNNFYPREAKVQWKVDNALQSGNSQESVTEQDSKDSTYSLSSTLTLSKADYEKHKVYACEVTHQGLSSPVTKSFNRGEC heavy 2: EVQLVESGGDLVQPGRSLRLSCAASGFTFDDCVIHWVRYAPGKGLEWVSGITWNSGRIGYADRVKGRFTISRDNAKNSLYLQMNSLRVEDTALYYCAKEGNYDFWSTYYRGYFDLWGRGTLVTVSSASTKGPSVFPLAPSSKSTSGGTAALGCLVKDYFPEPVTVSWNSGALTSGVHTFPAVLQSSGLYSLSSVVTVPSSSLGTQTYICNVNHKPSNTKVDKKVEPKSCDKTHTCPPCPAPEAAGGPSVFLFPPKPKDTLMISRTPEVTCVVVDVSHEDPEVKFNWYVDGVEVHNAKTKPREEQYNSTYRVVSVLTVLHQDWLNGKEYKCKVSNKALPAPIEKTISKAKGQPRRPRVYTLPPSREEMTKNQVSLVCLVKGFYPSDIAVEWESNGQPENNYKTTPPVLDSDGSFFLYSVLTVDKSRWQQGNVFSCSVMHEALHNHYTQKSLSLSPG light 2: DIQMTQSPSSLSASVGDRVTITCRASQGIRNDLGWYQRKPGDAPKRLIYAASSLQGGVPLRFSGSGSGTEFTLTISSLQPEDFATYYCLQHNSYPYTFGQGTKLEIKRTVAAPSVFIFPPSDEQLKSGTASVVCLLNNFYPREAKVQWKVDNALQSGNSQESVTEQDSKDSTYSLSSTLTLSKADYEKHKVYACEVTHQGLSSPVTKSFNRGEC | 0.945 | 0.102
GOMP001_bsAb_020 (bispecific antibody, human IgG1, kappa, L234A L235A) heavy 1: EVQLVDSGGGLVQPGGSLRLSCSGSGFTFSSYWMSWVRYAPGKGLEWVANIKQDGSQKYYVDRVKGRFTISRDNVKNSLYLQMNSLRVEDTAVYYCARDESSSWYWYFDLWGRGTLVTVSSASTKGPSVFPLAPSSKSTSGGTAALGCLVKDYFPEPVTVSWNSGALTSGVHTFPAVLQSSGLYSLSSVVTVPSSSLGTQTYICNVNHKPSNTKVDKKVEPKSCDKTHTCPPCPAPEAAGGPSVFLFPPKPKDTLMISRTPEVTCVVVDVSHEDPEVKFNWYVDGVEVHNAKTKPREEQYNSTYRVVSVLTVLHQDWLNGKEYKCKVSNKALPAPIEKTISKAKGQPRRPRVYTLPPSREEMTKNQVSLVCLVKGFYPSDIAVEWESNGQPENNYKTTPPVLDSDGSFFLYSVLTVDKSRWQQGNVFSCSVMHEALHNHYTQKSLSLSPG light 1: DIQMTQSPSTLSASVGDRVTLTCRASQNIVKWLAWYQRKPGDAPKLLIYKASSLESGVPSWFSGSGSGTEFTLTINSLQPDDFATYYCQQYYTYSRTFGQGTKVEIKRTVAAPSVFIFPPSDEQLKSGTASVVCLLNNFYPREAKVQWKVDNALQSGNSQESVTEQDSKDSTYSLSSTLTLSKADYEKHKVYACEVTHQGLSSPVTKSFNRGEC heavy 2: QVQLVQSGAEVKKPGASVKVSCKASGYTFTSHWMHWVRYAPGQGLEWIGEFNPSNGRTNYNEKFKSKATMTVDTSTNTAYMELSSLRSEDTAVYYCASRDYDYDGRYFDYWGRGTLVTVSSASTKGPSVFPLAPSSKSTSGGTAALGCLVKDYFPEPVTVSWNSGALTSGVHTFPAVLQSSGLYSLSSVVTVPSSSLGTQTYICNVNHKPSNTKVDKKVEPKSCDKTHTCPPCPAPEAAGGPSVFLFPPKPKDTLMISRTPEVTCVVVDVSHEDPEVKFNWYVDGVEVHNAKTKPREEQYNSTYRVVSVLTVLHQDWLNGKEYKCKVSNKALPAPIEKTISKAKGQPRRPRVYTLPPSREEMTKNQVSLVCLVKGFYPSDIAVEWESNGQPENNYKTTPPVLDSDGSFFLYSVLTVDKSRWQQGNVFSCSVMHEALHNHYTQKSLSLSPG light 2: DIQMTQSPSSLSASVGDRVTITCSASSSVTYMYWYQRKPGDAPKLLIYDTSNLASGVPSRFSGSGSGTDYTFTISSLQPEDIATYYCQQWSSHIFTFGQGTKVEIKRTVAAPSVFIFPPSDEQLKSGTASVVCLLNNFYPREAKVQWKVDNALQSGNSQESVTEQDSKDSTYSLSSTLTLSKADYEKHKVYACEVTHQGLSSPVTKSFNRGEC | 0.235 | 0.0102
GOMP001_bsAb_018 (bispecific antibody, human IgG1, kappa, L234A L235A) heavy 1: EVQLVESGGDLVQPGRSLRLSCAASGFTFDDCVIHWVRYAPGKGLEWVSGITWNSGRIGYADRVKGRFTISRDNAKNSLYLQMNSLRVEDTALYYCAKEGNYDFWSTYYRGYFDLWGRGTLVTVSSASTKGPSVFPLAPSSKSTSGGTAALGCLVKDYFPEPVTVSWNSGALTSGVHTFPAVLQSSGLYSLSSVVTVPSSSLGTQTYICNVNHKPSNTKVDKKVEPKSCDKTHTCPPCPAPEAAGGPSVFLFPPKPKDTLMISRTPEVTCVVVDVSHEDPEVKFNWYVDGVEVHNAKTKPREEQYNSTYRVVSVLTVLHQDWLNGKEYKCKVSNKALPAPIEKTISKAKGQPRRPRVYTLPPSREEMTKNQVSLVCLVKGFYPSDIAVEWESNGQPENNYKTTPPVLDSDGSFFLYSVLTVDKSRWQQGNVFSCSVMHEALHNHYTQKSLSLSPG light 1: DIQMTQSPSSLSASVGDRVTITCRASQGIRNDLGWYQRKPGDAPKRLIYAASSLQGGVPLRFSGSGSGTEFTLTISSLQPEDFATYYCLQHNSYPYTFGQGTKLEIKRTVAAPSVFIFPPSDEQLKSGTASVVCLLNNFYPREAKVQWKVDNALQSGNSQESVTEQDSKDSTYSLSSTLTLSKADYEKHKVYACEVTHQGLSSPVTKSFNRGEC heavy 2: QVQLVQSGAEVKKPGASVKVSCKASGYTFTSHWMHWVRYAPGQGLEWIGEFNPSNGRTNYNEKFKSKATMTVDTSTNTAYMELSSLRSEDTAVYYCASRDYDYDGRYFDYWGRGTLVTVSSASTKGPSVFPLAPSSKSTSGGTAALGCLVKDYFPEPVTVSWNSGALTSGVHTFPAVLQSSGLYSLSSVVTVPSSSLGTQTYICNVNHKPSNTKVDKKVEPKSCDKTHTCPPCPAPEAAGGPSVFLFPPKPKDTLMISRTPEVTCVVVDVSHEDPEVKFNWYVDGVEVHNAKTKPREEQYNSTYRVVSVLTVLHQDWLNGKEYKCKVSNKALPAPIEKTISKAKGQPRRPRVYTLPPSREEMTKNQVSLVCLVKGFYPSDIAVEWESNGQPENNYKTTPPVLDSDGSFFLYSVLTVDKSRWQQGNVFSCSVMHEALHNHYTQKSLSLSPG light 2: DIQMTQSPSSLSASVGDRVTITCSASSSVTYMYWYQRKPGDAPKLLIYDTSNLASGVPSRFSGSGSGTDYTFTISSLQPEDIATYYCQQWSSHIFTFGQGTKVEIKRTVAAPSVFIFPPSDEQLKSGTASVVCLLNNFYPREAKVQWKVDNALQSGNSQESVTEQDSKDSTYSLSSTLTLSKADYEKHKVYACEVTHQGLSSPVTKSFNRGEC | 0.377 | 0.0442
GOMP001_bsAb_019 (bispecific antibody, human IgG1, kappa, L234A L235A) heavy 1: QVQLVQSGAEVKKPGASVKVSCKASGYTFTSHWMHWVRKAPGQGLEWIGEFNPSNGRTNYNEEFKSKATMTVDTSTNTAYMELSSLRSEDTAVYYCASRDYDYDGRYFDYWGQGTLVTVSSASTKGPSVFPLAPSSKSTSGGTAALGCLVADYFPEPVTVSWNSGALTSGVHTFPAVLQSSGLYSLSSVVTVPSSSLGTQTYICNVNHKPSNTKVDEKVEPKSCDKTHTCPPCPAPEAAGGPSVFLFPPKPKDTLMISRTPEVTCVVVDVSHEDPEVKFNWYVDGVEVHNAKTKPREEQYNSTYRVVSVLTVLHQDWLNGKEYKCKVSNKALPAPIEKTISKAKGQPREPQVYTLPPSREEMTDNQVSLTCLVKGFYPSDIAVEWESNGQPENNYKTTPPVLMSDGSFFLASKLTVDKSRWQQGNVFSCSVMHEALHNHYTQKSLSLSPG light 1: RIQMTQSPSSLSASVGDRVTITCSASSSVTYMYWYQDKPGKAPKLLIYDTSNLASGVPSRFSGSGSGTDYTFTISSLQPEDIATYYCQQWSSHIFTFGQGTKVEIKRTVAAPSVFIFPPSDKQLKSGTARVVCLLNNFYPREAKVQWKVDNALQSGNSQESVTEQDSKDSTYSLSSTLTLSKADYEKHKVYACEVTHQGLSSPVTKSFNRGEC heavy 2: EVQLVDSGGGLVQPGGSLRLSCSGSGFTFSSYWMSWVRYAPGKGLEWVANIKQDGSQKYYVDRVKGRFTISRDNVKNSLYLQMNSLRVEDTAVYYCARDESSSWYWYFDLWGRGTLVTVSSASTKGPSVFPLAPSSKSTSGGTAALGCLVKDYFPEPVTVSWNSGALTSGVHTFPAVLQSSGLYSLSSVVTVPSSSLGTQTYICNVNHKPSNTKVDKKVEPKSCDKTHTCPPCPAPEAAGGPSVFLFPPKPKDTLMISRTPEVTCVVVDVSHEDPEVKFNWYVDGVEVHNAKTKPREEQYNSTYRVVSVLTVLHQDWLNGKEYKCKVSNKALPAPIEKTISKAKGQPRRPRVYTLPPSREEMTKNQVSLVCLVKGFYPSDIAVEWESNGQPENNYKTTPPVLDSDGSFFLYSVLTVDKSRWQQGNVFSCSVMHEALHNHYTQKSLSLSPG light 2: DIQMTQSPSTLSASVGDRVTLTCRASQNIVKWLAWYQRKPGDAPKLLIYKASSLESGVPSWFSGSGSGTEFTLTINSLQPDDFATYYCQQYYTYSRTFGQGTKVEIKRTVAAPSVFIFPPSDEQLKSGTASVVCLLNNFYPREAKVQWKVDNALQSGNSQESVTEQDSKDSTYSLSSTLTLSKADYEKHKVYACEVTHQGLSSPVTKSFNRGEC | 4.27 | 0.257
